Reference: patent US6933132

Legend:
[1] = molecular target: surface of a PHA-activated T cell (unidentified binding site for soluble attractin-1); assay: Scatchard analysis, 125I-labeled soluble attractin on cells, 1 hr at 4 C
[2] = molecular target: surface of a resting T cell (unidentified binding site for soluble attractin-1); assay: as above

purified natural serum soluble attractin-1, 125I-labeled (from UniProt O75882 1-1267) (ligand)
Kd [1]: 0.005 to 0.05 nM
molecules bound per cell (molecules per cell) [1]: 2000
Kd [2]: 0.005 to 0.05 nM
molecules bound per cell (molecules per cell) [2]: 1000
